These results are taken from patent publication US12286661B2, “Methods for making high intensity sweeteners” (Firmenich Incorporated, priority 2018, dated 2025).

The labels stand for the following.
B1: SEQ ID NO. 1042/1043: CYP450 enzyme (DNA/protein SEQ ID NO) producing 11-OH cucurbitadienol (protein, listed as Siraitia grosvenorii)
chain: MAIFFFFFFFLLVVSVVFVFLFLRASRFRRVRLPPGSLGLPLIGETLQLISAYKTENPEPFIDERVRRFGAVFTTHLFGEPTVFSADWETNRFILQNEEKLFECSYPGSISNLLGKHSLLLMKGNLHKRMHSLTMSFANSSIIRDHLLLDVDRLIRLNLDSWTGRIFLMEEAKKITFELAVKQLMSFDRCEWTQNLMKEYLLVIEGFFTVPLPLLSTTYRRAIRARTKVAEALGLVVRQRRKESDAGKRKNDMLGALLAAEDALSDDQIVDFLLALLVAGYETTSTTMTLAVKFLTEAPLALTQLQEEHEQIKARKKEADQHLQWNDYKSMPFTQCVVNETLRVANIISGVFRRAMTDINIKGYTIPKGWKVFASFRAVHLDHDHFKDARSFNPWRWQQNTSGSTVNAFTPFGGGPRLCPGYELARVELSVFLHHFVTQFSWVPAEDDKLVFFPTTRTQKRYPINVMRKNETRQRKDSLDSRHMKGQESSFDM
B2: SEQ ID NO. 1040/1041: CYP450 enzyme (DNA/protein SEQ ID NO) producing 11-OH cucurbitadienol (protein, listed as Siraitia grosvenorii)
chain: MEVELTNFWVMILAAVLGFCVFVFGFLRRFNDLWTMVKLGKKVYKTLPPGDMGWPLIGSSLWFYKAFSASGDPDSFIKHLRSRYGRVGMYKTHLFGKPAVIVTDPEICRRVYSDDKHFVMSYPKSVKILGTGSLSRIDHRITHRFMAAPINGSEALARYVGFIEQVVVRGLEEWSSMRKPIELLHEIKRLTFRIIIHVFMGSALDPHIPKLEKLYAELSAAVFVAFAIDVPGSTYHRALKAKEEIQNILRPVIEEKRRIIEKNEEMEDKCQLDAVIKGKNGKGEKIFDNDAIIDMLLGLLYAGHHTSAHGTMWALIQLLEHPQVYEKAKEEQELIMKQRPSTQKGLIFNEIKQMTYLVKVINEMLRRVSIVFANFREAATDVNINGYTIPKGWVVPVWIKGVHMDPQIYPNPEEFNPSRWDTHTPKPGAFIPFGFGNRFCPGNELAKLEITILLHHFLLKYRWERVNPKASITSVPMPSPIDQCLAKITAIPSS
B3: SEQ ID NO. 1034/1035: CYP450 enzyme (DNA/protein SEQ ID NO) producing 11-OH cucurbitadienol (protein)
chain: MEIINGVFLILPLGFVLVFEVLKRLNGLYYAVKLGKKWGELPPGDLSWPLLGSTLSFLKSFTVGPPESFIRIFTTRYGKVDMYKTHMFGRASILVCKPEICRQVLIDETKFVPSYPACMKRLFGRKSLIRVSKAEHRKLRRMTMAPISSHAALEIYIEHTEHTVISGLEEWSSVEKPLKLLTEIKELTFKIIWNIFMGSTSIDYTTKEMEALYDDVALGLFCFPINFPGFNFHKSLKARKRLYEILLSIVNEKRLMKKSKGESWEAKDMMDLMTEVEDEDGEGMDNETITDLIFGKLFAGHETSAFTTMWAIIFLTDHPHIFQRAKEEQEDIIRRRPSTQKGINLVEFKQMKFLSQVIDETLRLSSIAFATFREATTDININGKLIPKGWKVILWHRGLYMDEELHPSPQDFNPSRWDDFIGNPGAFTPFGLGVRLCPGRDLAKLEISIFLHHFLLNYKIERYNPQCQLTYLPLPHPKDKCLARVLKAAGQCV
modifications: Cucurbita pepo
B4: SEQ ID NO. 1038/1039: CYP450 enzyme (DNA/protein SEQ ID NO) producing 11-OH cucurbitadienol (protein, listed as Siraitia grosvenorii)
chain: MLSFLGFAAFFFCFFLIHSLFKLFSAARRKLPLPPGSMGWPYMGETLQLYSQDPNVFFASKKKRYGPIFKSHILGYPCVMLSSPEAVKFVLVTKAHLFKPTFPASKERMLGKNAIFFHQGDYHAKLRRLVLRTFMPEAIRIMVPSIESIAKNTVQSWEGQLINTFQEMKMFAFEVSLLSIFGKDEALYFEDLKRCYYILEKGYNSMPINLPGTLFHKAMKARKELAHILNKILSTRREMKPDHNDLLGSFMGQKEGLTDEQIADNVIGLIFAARDTTASVLTWILKYLGENPSVLQAVTAEQEAIMKQKRSAHDNLTWGDTKNMPITSRVIQETLRVASVLSFTFREAVEDVEFDGYLIPKGWKVLPLFRNIHHSPEIFPQPDKFDPSRFEVAQKPNTYMPFGSGTHSCPGNELAKLEMLVLLHHLTTKYRWSVVGAQEGIQYGPFALPHNGLPIRISLKK
B5: SEQ ID NO. 1036/1037: CYP450 enzyme (DNA/protein SEQ ID NO) producing 11-OH cucurbitadienol (protein, listed as Lagenaria siceraria)
chain: MELIINNWLLILSCVGFALGLGVLKRLNNLYYAIKLGKKWDEVPPGDLSWPLLGSTLSFIKYFTLGPPHNFIAQFSNRYGKVDMYKTHIFGRASIIVCKPEICRQVLTDETKFAPGYPTTMTSLFGRRSLHRVSKVEHRKLRRLTTTPISSHAALELYIDHIEHTVINGLEEWSSMEKPLELLTVIKELTFKIIWNIFMGSTPMGSIAIREMEALYNDISLGFFCLPINFPGFYFHKSLKARKRLHEILQCIVNEKRLVKKSKGETWEAKDMMDLMIEVRDEDGEGMDDETIVDLIFGKLFAGQETSAFTTMWAILFLTNNPHVFQKAKVIDETLRVSSITFATFREAMTDVKINGKIIPKGWKVILWLRELNMDEKLHTSPQEFNPSRWDNFIGNPGAFTPFGLGVRMCPGRDLAKLEISIFLHYFLLNYKVEQLNPQCQLDYLPIPHPKDKCLARVLKVA
B6: SEQ ID NO. 1032/1033: CYP450 enzyme (DNA/protein SEQ ID NO) producing 11-OH cucurbitadienol (protein, listed as Cucurbita maxima)
chain: MWTIVVGLATLAVAYYIHWINKWKDSKFNGVLPPGTMGLPLIGETLQLSRPSDSLDVHPFIKKKVKRYGSIFKTCLAGRPVVVSTDAEFNNYIMLQEGRAVEMWYLDTLSKFFGLDTEWLKALGFIHKYIRSITLNHFGAESLRERFLPRIEESAKETLCYWATQPSVEVKDSAAVMVFRTSMVKMVSKDSSKLLTGGLTKKFTGLLGGFLTLPINVPGTTYNKCMKDMKEIQKKLREILEGRLASGAGSDEDFLGQAVKDKGSQKFISDDFIIQLLFSISFASFESISTTLTLILNYLADHPDVVKELEAEHEAIRNARADPDGPITWEEYKSMTFTLHVIFETLRLGSVTPALLRKTTKELQINGYTIPEGWTVMLVTASRHRDPAVYKDPHTFNPWRWKELDSITIQKNFMPFGGGLRHCAGAEYSKVYLCTFLHILFTKYRWTKLKGGKVARAHILSFEDGLHMKFTPKE
B7: SEQ ID NO. 1044/1045: CYP450 enzyme (DNA/protein SEQ ID NO) producing 11-OH cucurbitadienol (protein, listed as Siraitia grosvenorii)
chain: MDELKWFVLIPATFFLVVFVFEVLKRLNGWYYATKLWKIWDELPPGDMGWPLLGSTLSYINDFTAGQPQNFIRTFSNRYGKADMYKTHILGRASIIICTPEICRQVLTNEDKFKPSLPGNMKILSGRKSLMQVSKAEHRRLRRLTMAPISGHAALEMYISHIQATVVGGLEEWASIQRPVELVTEIKRLTFKVIWNIFMGSTSLDSSMGAMEALFSDVAVGFLSLPINFPGFYFHKSLKARKRLIEILQSIINEKRLVKKSKGESWEAKDMMDLMIEVKDEDGEELDDETIIDLIFGKLFAGHETSAFTAMWAVLFLTDHPQIFQKAKEEQEEIIRRRPSTQKGINLSDYKQMKFLSQVIDETLRVSCITSLLFREATADVEINGKIIPKGWRVLPWLGMLYMDENLFPSPQEFNPSRWDNFVPKPGAFIPFGVGNRFCPGSDLAKLEISIFLHYFLLNYKVERLNPKCHLTCLPFPHPTDKCLARVHKVA

In the series the test system is cucurbitadienol. Put plainly: 11-OH cucurbitadienol production from cucurbitadienol by CYP450s expressed in S. cerevisiae, LCMS. Type of series: cell-based. Conditions: S. cerevisiae strain producing cucurbitadienol and expressing SgCPR; LCMS peak area of product vs. internal reference; hits over vector only control. From the text:
DNA was obtained through gene synthesis either through Genescript, IDT, or Genewiz. For some of the cucurbitadienol synthases, cDNA or genomic DNA was obtained through 10-60 day old seedlings followed by PCR amplification using specific and degenerate primers. DNA was cloned through standard molecular biology techniques or through yeast gap repair cloning (Joska et al., 2014) into one of the following overexpression vectors: pESC-Ura, pESC-His, or pESC-LEU. Gene expression was regulated by one of the following promoters; Gall, Gal10, Tef1, or GDS. Yeast transformation was performed using Zymo Yeast Transformation Kit II. Yeast strains were grown in standard media (YPD or SC) containing the appropriate selection with 2% glucose or 2% galactose for induction of heterologous genes. Yeast strains were grown in shake flask or 96 well plates at 30° ° C., 140-250 rpm. When indicated, lanosterol synthase inhibitor, Ro 48-8071 (Cayman Chemicals) was added (50 ug/ml). Yeast samples producing mogrol precursors, mogrol and mogrosides were processed through one of the following: • Cucurbitadienol and 11-OH Cucurbitadienol: Samples cell pellets were lysed (Yeast Buster) followed by ethyl acetate extraction, drying, and resuspension in methanol. • ·Mogrol and Mogrosides: Samples cell pellets were lysed in 50% ETOH, incubated at 80° C. for 30 min, filtered, dried and resuspended in MeOH for LCMS screening.
For analyzing 11-OH cucurbitadienol, the LCMS method included the use of C8 2.1×100 mm column, gradient 60 to 90% B for 6 minutes at flow rate of 0.55 ml/min. For the enzyme screening, the LCMS method used was a Waters Acquity UPLC Protein BEH C4, 2.1×100 mm, 1.7 μm column and a gradient of 40% to 80% over 5 minutes, 95% B from 5.1 to 5.6 minutes with a flow rate of 0.55 ml/min, and ESI source positive mode single ion monitoring of 425.4.
Additional CYP450s were expressed in S. cerevisiae strain producing cucurbitadienol and expressing SgCPR. DNA and protein sequences for the CYP450 enzymes are shown in SEQ IDs 871-890 and 1024-1049 (see Table 1).
As to B1, the “Peak Area 11-OH CCB” value amounted to 0.3326.

B2: the “Peak Area 11-OH CCB” value is 0.3523.

As for B3, the “Peak Area 11-OH CCB” value stood at 0.3854.

For B4, the “Peak Area 11-OH CCB” value came to 0.3528.

On to B5, for which the “Peak Area 11-OH CCB” value was found to be 0.3833.

For B6, the “Peak Area 11-OH CCB” value was 0.4459.

In the case of B7, the “Peak Area 11-OH CCB” value is listed as 0.2664.
